# Laboratory results published in US20260034246A1 (REGENXBIO, published 2026).
# B1: BB5.1 scFv.LH (scFv)
# scFv: NIMMTQSPSSLAVSAGEKVTMSCKSSQSVLYSSNQKNYLAWYQQKPGQSPKLLIYWASTRESGVPDRFTGSGSGTDFTLTISSVQAEDLAVYYCHQYLSSRTFGGGTKLEIKRGGGGSGGGGSGGGGSQVQLQQPGAELVRPGTSVKLSCKASGYTFTSSWMHWVKQRPGQGLEWIGVIDPSDSYTNYNQKFKGKATLTVDTSSSTAYMQLSSLTSEDSAVYYCARGGGSSYNRYFDVWGTGTTVTVSS
# notes: also called Anti-mC5 scFV; BB5.1 scFv mAb
# B2: BB5.1 IgG (full-length mAb) (antibody, V domains shown)
# VH: QVQLQQPGAELVRPGTSVKLSCKASGYTFTSSWMHWVKQRPGQGLEWIGVIDPSDSYTNYNQKFKGKATLTVDTSSSTAYMQLSSLTSEDSAVYYCARGGGSSYNRYFDVWGTGTTVTVSS
# VL: NIMMTQSPSSLAVSAGEKVTMSCKSSQSVLYSSNQKNYLAWYQQKPGQSPKLLIYWASTRESGVPDRFTGSGSGTDFTLTISSVQAEDLAVYYCHQYLSSRTFGGGTKLEIKR
# notes: Surrogate anti-mouse C5 mAb; purified recombinant protein expressed in HEK293 cells; also called Anti-mC5 IgG; BB5.1 full-length mAb
# B3: BB5.1-Fab-His6 (Fab, V domains shown)
# VH: B2 VH
# VL: B2 VL
# notes: also called Anti-mC5 Fab; BB5.1 Fab mAb
# B4: Crovalimab IgG (full-length mAb) (antibody, V domains shown)
# VH: QVQLVESGGGLVQPGRSLRLSCAASGFTVHSSYYMAWVRQAPGKGLEWVGAIFTGSGAEYKAEWAKGRVTISKDTSKNQVVLTMTNMDPVDTATYYCASDAGYDYPTHAMHYWGQGTLVTVSS
# VL: DIQMTQSPSSLSASVGDRVTITCRASQGISSSLAWYQQKPGKAPKLLIYGASETESGVPSRFSGSGSGTDFTLTISSLQPEDFATYYCQNTKVGSSYGNTFGGGTKVEIKR
# notes: also called Anti-hC5 IgG; Crovalimab full-length mAb
# B5: Crovalimab-Fab-His6 (Fab, V domains shown)
# VH: B4 VH
# VL: B4 VL
# notes: also called Anti-hC5 Fab; Crovalimab Fab mAb
# B6: Crovalimab scFv.HL (scFv)
# scFv: QVQLVESGGGLVQPGRSLRLSCAASGFTVHSSYYMAWVRQAPGKGLEWVGAIFTGSGAEYKAEWAKGRVTISKDTSKNQVVLTMTNMDPVDTATYYCASDAGYDYPTHAMHYWGQGTLVTVSSGGGGSGGGGSGGGGSDIQMTQSPSSLSASVGDRVTITCRASQGISSSLAWYQQKPGKAPKLLIYGASETESGVPSRFSGSGSGTDFTLTISSLQPEDFATYYCQNTKVGSSYGNTFGGGTKVEIKR
# notes: also called Anti-hC5 scFV; Crovalimab scFv mAb
# What was measured:
# [1] = molecular target: T1, Mouse Complement C5 Protein (mouse, UniProt P06684 19-1680, limits assumed, biotinylated in the Octet assay (sites not given)); experiment: BLI (OctetRED384), biotinylated mouse C5 on SA biosensor, BB5.1 scFv.LH as analyte, 30 C
# T1 construct: native C5 of normal mouse serum in the hemolysis assays; also called Mouse C5; mC5
# [2] = molecular target: T1, Mouse Complement C5 Protein; experiment: BLI (OctetRED384), biotinylated mouse C5 on SA biosensor, BB5.1 IgG as analyte, 30 C
# Protocol: (§1) The assay was performed at 30° C. and at 1000 rpm. Biotinylated mouse C5 antigen was firstly immobilized onto SA biosensor.
# [3] = molecular target: T1, Mouse Complement C5 Protein; experiment: BLI (OctetRED384), biotinylated mouse C5 on SA biosensor, BB5.1-Fab-His6 as analyte, 30 C
# Protocol: as §1
# [4] = molecular target: T1, Mouse Complement C5 Protein; experiment: BLI (OctetRED384), biotinylated mouse C5 on SA biosensor, Crovalimab IgG as analyte, 30 C
# Protocol: as §1
# [5] = molecular target: T2, Cyno Complement C5 Protein (cynomolgous macaque); experiment: BLI (OctetRED384), biotinylated cyno C5 on SA biosensor, Crovalimab IgG as analyte, 30 C
# T2 construct: also called Cyno C5; Biotinylated cyno C5 antigen
# Protocol: The assay was performed at 30° C. and at 1000 rpm. Biotinylated cyno C5 antigen was firstly immobilized onto SA biosensor.
# [6] = molecular target: T2, Cyno Complement C5 Protein; experiment: BLI (OctetRED384), biotinylated cyno C5 on SA biosensor, Crovalimab-Fab-His6 as analyte, 30 C
# [7] = molecular target: T1, Mouse Complement C5 Protein; experiment: BLI (OctetRED384), biotinylated mouse C5 on SA biosensor, Crovalimab-Fab-His6 as analyte, 30 C
# Protocol: as §1
# [8] = molecular target: T2, Cyno Complement C5 Protein; experiment: BLI (OctetRED384), biotinylated cyno C5 on SA biosensor, Crovalimab scFv.HL as analyte, 30 C
# [9] = molecular target: T1, Mouse Complement C5 Protein; experiment: BLI (OctetRED384), biotinylated mouse C5 on SA biosensor, Crovalimab scFv.HL as analyte, 30 C
# Protocol: as §1
binder,measurement,setting,value
B1,Kd,[1],3.69 nM
B2,Kd,[2],0.0121 nM
B3,Kd,[3],3.47 nM
B4,Kd,[4],0.0229 nM
same,Kd,[5],0.0131 nM
B5,Kd,[6],0.0602 nM
same,Kd,[7],4.14 nM
B6,Kd,[8],0.0845 nM
same,Kd,[9],4.54 nM
